System: O=C(O)CCC(=O)C(=O)O
Assay: purified protein
Settings: NADH

Sequence of GDH1 from bovine liver (glutamate dehydrogenase 1) (Bos taurus) (chain, as listed by the source): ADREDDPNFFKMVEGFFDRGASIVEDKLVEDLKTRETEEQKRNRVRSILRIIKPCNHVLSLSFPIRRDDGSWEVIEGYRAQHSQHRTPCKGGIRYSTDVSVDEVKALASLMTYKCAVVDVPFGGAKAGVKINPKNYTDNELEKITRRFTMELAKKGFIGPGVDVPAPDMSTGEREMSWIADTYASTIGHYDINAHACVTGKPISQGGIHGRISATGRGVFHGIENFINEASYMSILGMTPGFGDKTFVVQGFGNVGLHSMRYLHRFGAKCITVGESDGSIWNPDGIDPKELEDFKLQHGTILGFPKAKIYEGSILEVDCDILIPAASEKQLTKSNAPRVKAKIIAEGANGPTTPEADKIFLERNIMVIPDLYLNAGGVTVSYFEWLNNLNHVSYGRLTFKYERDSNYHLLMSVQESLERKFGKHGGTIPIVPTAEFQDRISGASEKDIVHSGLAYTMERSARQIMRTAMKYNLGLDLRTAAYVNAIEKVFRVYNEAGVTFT

## GDH1 from bovine liver (glutamate dehydrogenase 1) (Bos taurus)
  Km: 840 ± 20 µM

— article PMC8615521, “Mitochondria-Mediated Apoptosis of HCC Cells Triggered by Knockdown of Glutamate Dehydrogenase 1: Perspective for Its Inhibition through Quercetin and Permethylated Anigopreissin A” (Biomedicines, 2021)
